# Measurements reported in patent publication EP4786492A1.
# Substitutions are numbered along the chain they refer to.
# B1: Hab006VL4VH2-hFc (scFv, part only; not given: scFv linker and human IgG1 Fc, V domains shown, not shown: another chain or arm of the molecule; a dimerising Fc or GST; small tags and cut ends)
# VL: DIVMTQSPDSLAVSLGERATINCRATKSISKYLAWYQQKPGQTNKLLIFSGSTLQSGVPDRFSGSGSGTDFTLTISSLQAEDVAVYYCQQHHEYPYTFGGGTKVEIK
# VH: EVQLVQSGAEVKKPGASVKVSCKASGYTFTSYWMHWVRQAPGQRLEWMGVIDPSDSLANYNQEFKGRVTLTVDTSASTAYMELSSLRSEDTAVYYCARDSTVVAPMDYWGQGTTVTVSS
# B2: Hab009VL3aVH1-hFc (scFv, part only; not given: VL-VH linker and human IgG1 Fc, V domains shown, not shown: another chain or arm of the molecule; a dimerising Fc or GST; small tags and cut ends)
# VL: DIVMTQSPLSLPVTPGEPASISCRASQTISDYLHWYLQKSHQSPQLLIKYASQSISGVPDRFSGSGSGTDFTLKISRVEAEDVGVYYCQQGHSFPLTFGQGTKLEIK
# VH: EVQLVQSGAEVKKPGASVKVSCKASGYTFTSYWMHWVRQAPGQRLEWMGTIYPGNSDTRYNQKFKDRVTITADTSASTAYMELSSLRSEDTAVYYCTRSYDYGDLDYWGQGTTVTVSS
# B3: Hab009VL1aVH1-hFc (scFv, part only; not given: scFv linker and human IgG1 Fc, V domains shown, not shown: another chain or arm of the molecule; a dimerising Fc or GST; small tags and cut ends)
# VL: B2 VL with S40P, H41G, T69S
# VH: B2 VH
# B4: Hab013VL2VH2a-hFc (scFv, part only; not given: scFv linker and human IgG1 Fc, V domains shown, not shown: another chain or arm of the molecule; a dimerising Fc or GST; small tags and cut ends)
# VL: EIVLTQSPATLSLSPGERATLSCRASKSVSTSGFSYMHWYQQKPGQPPRLLIYLASNLESGIPARFSGSGSGTDFTLTISSLEPEDFAVYYCQHSRELPFTFGQGTKLEIK
# VH: EVQLVQSGAEVKKPGSSVKVSCKASGYAFSNYWINWVRQAPGQGLEWMGQINPGDGDTIYNSKFKGRVTITADKSTSTAYMELSSLRSEDTAVYYCEREGRNYGDFAYWGQGTTVTVSS
# Biological target: monkey DLL3 on CHO-K1-cyno DLL3 cells (cynomolgus monkey)
# Sequence (chain, as listed by the source limits assumed): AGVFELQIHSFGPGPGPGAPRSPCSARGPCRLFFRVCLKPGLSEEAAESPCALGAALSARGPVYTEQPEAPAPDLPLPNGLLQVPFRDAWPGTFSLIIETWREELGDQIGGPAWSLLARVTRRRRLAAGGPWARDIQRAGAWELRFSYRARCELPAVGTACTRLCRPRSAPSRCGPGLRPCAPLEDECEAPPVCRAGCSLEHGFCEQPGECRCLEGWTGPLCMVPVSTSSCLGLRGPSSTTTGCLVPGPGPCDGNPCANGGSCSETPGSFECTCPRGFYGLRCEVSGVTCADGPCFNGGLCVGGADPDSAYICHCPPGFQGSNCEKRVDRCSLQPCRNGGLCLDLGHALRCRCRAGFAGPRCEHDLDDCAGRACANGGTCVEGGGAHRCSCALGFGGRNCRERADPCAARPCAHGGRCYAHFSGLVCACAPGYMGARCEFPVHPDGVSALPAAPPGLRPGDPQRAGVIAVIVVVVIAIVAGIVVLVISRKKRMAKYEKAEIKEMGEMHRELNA
# Experiment: FACS, CHO-K1-cyno DLL3 cells, 0.0064 nM antibody
row,MFI,Binder
1,494 MFI,B1
2,3760 MFI,B2
3,178 MFI,B3

# Biological target: human DLL3 protein expressed on CHO-K1 recombinant cells (human DLL3 extracellular segment fused to EpCAM transmembrane and intracellular regions) (human) (UniProt Q9NYJ7)
# Sequence (Q9NYJ7 other isoform, or with tags, fused parts or gaps limits assumed): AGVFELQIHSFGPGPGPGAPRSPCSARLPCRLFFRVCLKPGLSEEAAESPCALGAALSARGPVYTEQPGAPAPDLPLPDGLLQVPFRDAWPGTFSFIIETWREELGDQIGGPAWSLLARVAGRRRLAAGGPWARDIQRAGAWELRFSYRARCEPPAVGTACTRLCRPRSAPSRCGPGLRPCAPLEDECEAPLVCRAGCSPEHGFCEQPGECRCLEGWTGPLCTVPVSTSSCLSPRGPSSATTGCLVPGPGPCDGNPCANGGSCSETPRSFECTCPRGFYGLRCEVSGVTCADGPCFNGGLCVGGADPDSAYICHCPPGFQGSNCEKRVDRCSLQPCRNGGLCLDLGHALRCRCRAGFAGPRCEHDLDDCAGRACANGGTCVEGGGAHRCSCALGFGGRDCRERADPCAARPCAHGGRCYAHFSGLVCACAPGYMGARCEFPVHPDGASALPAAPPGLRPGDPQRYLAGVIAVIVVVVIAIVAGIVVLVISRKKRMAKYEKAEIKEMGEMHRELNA
# Experiment: FACS, CHO-K1 hDLL3 cells, 0.00128 nM antibody
row,MFI,Binder
1,243 MFI,B1
2,199 MFI,B3
3,164 MFI,B4

# Biological target: human DLL3 protein expressed on CHO-K1 recombinant cells (human DLL3 extracellular segment fused to EpCAM transmembrane and intracellular regions) (human) (UniProt Q9NYJ7)
# Experiment: FACS, CHO-K1 hDLL3 cells, 20 nM antibody
row,MFI,Binder
1,14500 MFI,B1
2,12400 MFI,B3
3,16300 MFI,B4

# Biological target: human DLL3 protein (extracellular segment, His tag) (human) (UniProt Q9NYJ7)
# Sequence (Q9NYJ7 27-492): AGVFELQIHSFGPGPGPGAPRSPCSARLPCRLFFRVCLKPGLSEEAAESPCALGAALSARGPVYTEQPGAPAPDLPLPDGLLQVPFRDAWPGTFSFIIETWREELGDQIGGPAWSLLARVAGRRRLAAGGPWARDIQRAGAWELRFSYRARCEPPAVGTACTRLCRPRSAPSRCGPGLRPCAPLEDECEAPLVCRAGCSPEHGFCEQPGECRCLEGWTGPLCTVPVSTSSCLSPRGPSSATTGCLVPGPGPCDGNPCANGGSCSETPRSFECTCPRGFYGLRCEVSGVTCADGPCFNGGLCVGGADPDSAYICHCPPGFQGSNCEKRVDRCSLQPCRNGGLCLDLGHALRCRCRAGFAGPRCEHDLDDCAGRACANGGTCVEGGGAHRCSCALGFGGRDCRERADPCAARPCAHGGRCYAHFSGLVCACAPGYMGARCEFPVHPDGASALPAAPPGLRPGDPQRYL
# Experiment: SPR (Biacore 8K), antibody captured on Protein A chip, DLL3 antigen in solution, 1:1 Langmuir fit
Kd,koff,kon,Binder
0.395 nM,0.000156 s⁻¹,394000 M⁻¹ s⁻¹,B1
0.304 nM,0.00175 s⁻¹,5.76e+06 M⁻¹ s⁻¹,B2
0.325 nM,0.00194 s⁻¹,5.96e+06 M⁻¹ s⁻¹,B3
0.112 nM,0.000371 s⁻¹,3.32e+06 M⁻¹ s⁻¹,B4

# Biological target: monkey DLL3 on CHO-K1-cyno DLL3 cells (cynomolgus monkey)
# Experiment: FACS, CHO-K1-cyno DLL3 cells, 0.032 nM antibody
row,MFI,Binder
1,1340 MFI,B1
2,4020 MFI,B2
3,423 MFI,B3

# Biological target: DLL3 endogenously expressed on NCI-H82 cells (UniProt Q9NYJ7)
# Sequence (Q9NYJ7 27-618): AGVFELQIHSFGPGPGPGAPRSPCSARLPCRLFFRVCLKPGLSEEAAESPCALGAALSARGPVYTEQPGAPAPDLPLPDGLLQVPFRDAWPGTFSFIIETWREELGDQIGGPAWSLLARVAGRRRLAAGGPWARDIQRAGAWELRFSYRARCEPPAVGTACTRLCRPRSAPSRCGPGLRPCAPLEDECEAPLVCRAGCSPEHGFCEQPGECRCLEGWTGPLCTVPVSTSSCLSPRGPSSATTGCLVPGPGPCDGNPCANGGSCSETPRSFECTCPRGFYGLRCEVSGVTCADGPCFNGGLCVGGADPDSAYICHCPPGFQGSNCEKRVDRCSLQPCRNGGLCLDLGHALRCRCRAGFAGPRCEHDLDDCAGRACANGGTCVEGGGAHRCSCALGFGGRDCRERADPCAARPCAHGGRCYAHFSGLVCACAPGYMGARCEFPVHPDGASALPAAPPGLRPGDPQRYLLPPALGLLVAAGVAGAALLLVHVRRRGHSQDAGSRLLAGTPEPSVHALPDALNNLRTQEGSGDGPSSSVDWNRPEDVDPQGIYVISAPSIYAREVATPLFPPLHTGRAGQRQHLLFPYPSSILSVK
# Experiment: FACS on NCI-H82 cells; antibody 20 nM
row,MFI,Binder
1,796,B2
2,1170,B4

# Biological target: monkey DLL3 on CHO-K1-cyno DLL3 cells (cynomolgus monkey)
# Experiment: FACS, CHO-K1-cyno DLL3 cells, 20 nM antibody
row,MFI,Binder
1,9180 MFI,B1
2,30000 MFI,B2
3,27100 MFI,B3

# Biological target: mouse DLL3 on CHO-K1-mDLL3 cells (mouse) (UniProt O88516)
# Sequence (O88516 other isoform, or with tags, fused parts or gaps limits assumed): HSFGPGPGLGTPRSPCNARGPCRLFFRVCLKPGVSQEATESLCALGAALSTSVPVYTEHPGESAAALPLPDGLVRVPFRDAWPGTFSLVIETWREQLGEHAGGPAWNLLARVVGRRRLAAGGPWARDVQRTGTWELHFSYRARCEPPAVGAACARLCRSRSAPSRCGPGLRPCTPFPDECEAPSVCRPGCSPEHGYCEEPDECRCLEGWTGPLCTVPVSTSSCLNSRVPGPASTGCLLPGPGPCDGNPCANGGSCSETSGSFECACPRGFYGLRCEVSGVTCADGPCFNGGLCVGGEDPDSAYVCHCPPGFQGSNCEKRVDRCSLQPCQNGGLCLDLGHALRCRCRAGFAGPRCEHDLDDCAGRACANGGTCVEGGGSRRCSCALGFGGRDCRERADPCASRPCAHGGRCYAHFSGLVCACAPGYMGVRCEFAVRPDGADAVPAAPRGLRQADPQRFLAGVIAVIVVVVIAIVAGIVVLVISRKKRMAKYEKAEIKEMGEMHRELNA
# Experiment: FACS, CHO-K1-mDLL3 cells, 4 nM antibody
row,MFI,Binder
1,577 MFI,B1
2,458 MFI,B2
3,367 MFI,B3
4,557 MFI,B4

# Biological target: DLL3 endogenously expressed on NCI-H82 cells (UniProt Q9NYJ7)
# Experiment: FACS on NCI-H82 cells; antibody 100 nM
row,MFI,Binder
1,872,B2
2,1520,B4

# Biological target: monkey DLL3 on CHO-K1-cyno DLL3 cells (cynomolgus monkey)
# Experiment: FACS, CHO-K1-cyno DLL3 cells, 100 nM antibody
row,MFI,Binder
1,10500 MFI,B1
2,29600 MFI,B2
3,27000 MFI,B3

# Biological target: mouse DLL3 on CHO-K1-mDLL3 cells (mouse) (UniProt O88516)
# Experiment: FACS, CHO-K1-mDLL3 cells, 20 nM antibody
row,MFI,Binder
1,605 MFI,B1
2,491 MFI,B2
3,383 MFI,B3
4,655 MFI,B4

# Biological target: human delta-like ligand 3 (DLL3) on SHP77 cells (human) (UniProt Q9NYJ7)
# Sequence (Q9NYJ7 27-618, stated change not applied): as the sequence (Q9NYJ7 27-618) above
# Experiment: FACS on SHP77 cells
MFI at 0.00128 nM,MFI at 0.0064 nM,MFI at 0.032 nM,MFI at 0.16 nM,MFI at 0.8 nM,MFI at 4 nM,MFI at 20 nM,MFI at 100 nM,Binder
199 MFI,281 MFI,528 MFI,1050 MFI,1330 MFI,1500 MFI,1620 MFI,1870 MFI,B1
107 MFI,129 MFI,205 MFI,430 MFI,692 MFI,783 MFI,855 MFI,969 MFI,B3
116 MFI,131 MFI,183 MFI,323 MFI,541 MFI,719 MFI,876 MFI,1140 MFI,B4

# Biological target: monkey DLL3 on CHO-K1-cyno DLL3 cells (cynomolgus monkey)
# Experiment: FACS, CHO-K1-cyno DLL3 cells, 4 nM antibody
row,MFI,Binder
1,8510 MFI,B1
2,30000 MFI,B2
3,19900 MFI,B3

# Biological target: DLL3 endogenously expressed on NCI-H82 cells (UniProt Q9NYJ7)
# Experiment: FACS on NCI-H82 cells; antibody 0.8 nM
row,MFI,Binder
1,709,B2
2,831,B4

# Biological target: human DLL4 protein (Acro, Cat. No. DL4-H5227) (human) (UniProt Q9NR61)
# Sequence (Q9NR61 27-524 limits assumed): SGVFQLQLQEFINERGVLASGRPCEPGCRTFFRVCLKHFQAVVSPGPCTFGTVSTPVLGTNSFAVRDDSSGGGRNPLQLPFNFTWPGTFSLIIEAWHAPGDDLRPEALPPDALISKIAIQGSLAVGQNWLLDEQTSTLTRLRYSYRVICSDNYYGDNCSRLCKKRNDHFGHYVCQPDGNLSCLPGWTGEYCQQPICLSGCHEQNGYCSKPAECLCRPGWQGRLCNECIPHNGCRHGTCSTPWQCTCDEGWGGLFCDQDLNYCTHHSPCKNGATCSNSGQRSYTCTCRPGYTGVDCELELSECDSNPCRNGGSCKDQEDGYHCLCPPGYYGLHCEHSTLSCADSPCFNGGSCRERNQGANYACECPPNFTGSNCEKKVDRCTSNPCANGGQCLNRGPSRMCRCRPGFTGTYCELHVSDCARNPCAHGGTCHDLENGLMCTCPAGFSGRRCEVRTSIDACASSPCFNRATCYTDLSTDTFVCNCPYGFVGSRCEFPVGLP
# Experiment: ELISA, coated hDLL4; maximum over 0.1, 1, 10, 100 nM antibody
row,Emax of OD450 nm binding value,Binder
1,0.06 OD450 nm,B1
2,0.06 OD450 nm,B2
3,0.08 OD450 nm,B3
4,0.05 OD450 nm,B4

# Biological target: human DLL3 protein expressed on CHO-K1 recombinant cells (human DLL3 extracellular segment fused to EpCAM transmembrane and intracellular regions) (human) (UniProt Q9NYJ7)
# Experiment: FACS, CHO-K1 hDLL3 cells, 0.16 nM antibody
row,MFI,Binder
1,4700 MFI,B1
2,5840 MFI,B3
3,3190 MFI,B4

# Biological target: mouse DLL3 on CHO-K1-mDLL3 cells (mouse) (UniProt O88516)
# Experiment: FACS, CHO-K1-mDLL3 cells, 0.16 nM antibody
row,MFI,Binder
1,343 MFI,B1
2,345 MFI,B2
3,258 MFI,B3
4,313 MFI,B4

# Biological target: monkey DLL3 on CHO-K1-cyno DLL3 cells (cynomolgus monkey)
# Experiment: FACS, CHO-K1-cyno DLL3 cells, 0.00128 nM antibody
row,MFI,Binder
1,276 MFI,B1
2,1450 MFI,B2
3,120 MFI,B3

# Biological target: mouse DLL3 on CHO-K1-mDLL3 cells (mouse) (UniProt O88516)
# Experiment: FACS, CHO-K1-mDLL3 cells, 100 nM antibody
row,MFI,Binder
1,580 MFI,B1
2,553 MFI,B2
3,400 MFI,B3
4,764 MFI,B4

# Biological target: monkey DLL3 on CHO-K1-cyno DLL3 cells (cynomolgus monkey)
# Experiment: FACS, CHO-K1-cyno DLL3 cells, 0.16 nM antibody
row,MFI,Binder
1,3970 MFI,B1
2,10600 MFI,B2
3,1640 MFI,B3

# Biological target: DLL3 endogenously expressed on NCI-H82 cells (UniProt Q9NYJ7)
# Experiment: FACS on NCI-H82 cells; antibody 0.032 nM
row,MFI,Binder
1,371,B2
2,356,B4

# Biological target: mouse DLL3 on CHO-K1-mDLL3 cells (mouse) (UniProt O88516)
# Experiment: FACS, CHO-K1-mDLL3 cells, 0.032 nM antibody
row,MFI,Binder
1,185 MFI,B1
2,287 MFI,B2
3,166 MFI,B3
4,179 MFI,B4

# Biological target: DLL3 endogenously expressed on NCI-H82 cells (UniProt Q9NYJ7)
# Experiment: FACS on NCI-H82 cells; antibody 4 nM
row,MFI,Binder
1,738,B2
2,1030,B4

# Biological target: mouse DLL3 on CHO-K1-mDLL3 cells (mouse) (UniProt O88516)
# Experiment: FACS, CHO-K1-mDLL3 cells, 0.0064 nM antibody
row,MFI,Binder
1,118 MFI,B1
2,269 MFI,B2
3,109 MFI,B3
4,125 MFI,B4

# Biological target: human DLL3 protein expressed on CHO-K1 recombinant cells (human DLL3 extracellular segment fused to EpCAM transmembrane and intracellular regions) (human) (UniProt Q9NYJ7)
# Experiment: FACS, CHO-K1 hDLL3 cells, 0.0064 nM antibody
row,MFI,Binder
1,458 MFI,B1
2,452 MFI,B3
3,270 MFI,B4

# Biological target: human DLL3 protein expressed on CHO-K1 recombinant cells (human DLL3 extracellular segment fused to EpCAM transmembrane and intracellular regions) (human) (UniProt Q9NYJ7)
# Experiment: FACS, CHO-K1 hDLL3 cells, 0.032 nM antibody
row,MFI,Binder
1,1340 MFI,B1
2,1540 MFI,B3
3,789 MFI,B4

# Biological target: human DLL1 protein (Acro, Cat. No. DL1-H52H8) (human) (UniProt O00548)
# Sequence (O00548 18-540 limits assumed): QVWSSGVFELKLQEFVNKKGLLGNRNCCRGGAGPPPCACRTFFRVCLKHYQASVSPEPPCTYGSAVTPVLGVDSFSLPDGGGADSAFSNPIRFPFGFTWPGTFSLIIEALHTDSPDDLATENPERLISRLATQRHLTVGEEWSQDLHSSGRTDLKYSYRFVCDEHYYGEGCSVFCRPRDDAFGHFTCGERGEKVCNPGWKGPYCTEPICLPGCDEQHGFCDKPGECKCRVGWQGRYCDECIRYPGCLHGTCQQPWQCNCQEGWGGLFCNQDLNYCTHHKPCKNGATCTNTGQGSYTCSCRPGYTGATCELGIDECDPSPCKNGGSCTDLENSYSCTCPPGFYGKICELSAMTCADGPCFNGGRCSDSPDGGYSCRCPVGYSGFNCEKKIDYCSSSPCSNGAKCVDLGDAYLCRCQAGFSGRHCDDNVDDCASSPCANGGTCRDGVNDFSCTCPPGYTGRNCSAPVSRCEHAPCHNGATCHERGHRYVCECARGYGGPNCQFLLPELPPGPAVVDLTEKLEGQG
# Experiment: ELISA, coated hDLL1; maximum over 0.1, 1, 10, 100 nM antibody
row,Emax of OD450 nm binding value,Binder
1,0.05 OD450 nm,B1
2,0.06 OD450 nm,B2
3,0.05 OD450 nm,B3
4,0.05 OD450 nm,B4

# Biological target: human DLL3 protein expressed on CHO-K1 recombinant cells (human DLL3 extracellular segment fused to EpCAM transmembrane and intracellular regions) (human) (UniProt Q9NYJ7)
# Experiment: FACS, CHO-K1 hDLL3 cells, 4 nM antibody
row,MFI,Binder
1,13800 MFI,B1
2,11900 MFI,B3
3,14900 MFI,B4

# Biological target: mouse DLL3 on CHO-K1-mDLL3 cells (mouse) (UniProt O88516)
# Experiment: FACS, CHO-K1-mDLL3 cells, 0.8 nM antibody
row,MFI,Binder
1,495 MFI,B1
2,413 MFI,B2
3,327 MFI,B3
4,463 MFI,B4

# Biological target: mouse DLL3 on CHO-K1-mDLL3 cells (mouse) (UniProt O88516)
# Experiment: FACS, CHO-K1-mDLL3 cells, 0.00128 nM antibody
row,MFI,Binder
1,99 MFI,B1
2,190 MFI,B2
3,86 MFI,B3
4,113 MFI,B4

# Biological target: DLL3 endogenously expressed on NCI-H82 cells (UniProt Q9NYJ7)
# Experiment: FACS on NCI-H82 cells; antibody 0.16 nM
row,MFI,Binder
1,669,B2
2,670,B4

# Biological target: monkey DLL3 on CHO-K1-cyno DLL3 cells (cynomolgus monkey)
# Experiment: FACS, CHO-K1-cyno DLL3 cells, 0.8 nM antibody
row,MFI,Binder
1,7810 MFI,B1
2,24700 MFI,B2
3,6880 MFI,B3

# Biological target: human DLL3 protein expressed on CHO-K1 recombinant cells (human DLL3 extracellular segment fused to EpCAM transmembrane and intracellular regions) (human) (UniProt Q9NYJ7)
# Experiment: FACS, CHO-K1 hDLL3 cells, 0.8 nM antibody
row,MFI,Binder
1,11900 MFI,B1
2,11000 MFI,B3
3,11200 MFI,B4

# Biological target: DLL3 endogenously expressed on NCI-H82 cells (UniProt Q9NYJ7)
# Experiment: FACS on NCI-H82 cells; antibody 0.00128 nM
row,MFI,Binder
1,123,B2
2,130,B4

# Biological target: DLL3 endogenously expressed on NCI-H82 cells (UniProt Q9NYJ7)
# Experiment: FACS on NCI-H82 cells; antibody 0.0064 nM
row,MFI,Binder
1,179,B2
2,185,B4

# Biological target: human DLL3 protein expressed on CHO-K1 recombinant cells (human DLL3 extracellular segment fused to EpCAM transmembrane and intracellular regions) (human) (UniProt Q9NYJ7)
# Experiment: FACS, CHO-K1 hDLL3 cells, 100 nM antibody
row,MFI,Binder
1,15400 MFI,B1
2,12900 MFI,B3
3,19500 MFI,B4
